In article PMC6697466, “Interaction Between the a3 Region of Factor VIII and the TIL’E’ Domains of the von Willebrand Factor” (Biophysical Journal, 2019):
Where a chain is given by its changes, count along the chain named. Names and notes keep the numbering of the source. Values joined by “and” are separate entries in the source; they are usually repeats but may differ in a detail not shown here. Equal entries are not always repeated. “Also recorded” adds a separate entry of the source. Blank lines part the entries; values can stand above or below the molecule they belong to. Square brackets hold non-standard residues; d marks the D form. Ends that are not written are not given here. sY = N[C@@H](Cc1ccc(OS(=O)(=O)O)cc1)C(=O)O

Columns and labels:
FVIII [1] = conditions: full-length VWF R816W; cited from earlier work
Excerpt: Arg816 is located in the VWF TIL’ β3-β4 sheet ([31]), where the largest chemical shift changes were observed (Figs. 2 and 3).

TIL’E’ = experiment: ITC of FVIII a3 peptides with TIL’E’; assay type: binding; conditions: 25°C, higher concentrations not feasible due to solubility
Method: (§1) ITC experiments were performed on a MicroCal iTC200 (Malvern Instruments, Malvern, UK) at 25°C. All experiments were performed with a total of 19 injections (the first injection 0.4 μL, the rest 2 μL), with 120 s between each injection and an initial delay of 60 s. The reference power was set to 6 μcal/s, and the syringe was stirred at 750 or 1000 Rpm depending on the specifications of the syringe. The concentrations of proteins used are specified in the figure legends.

VWF TIL’E’ R816W = experiment: NMR 15N-1H HSQC of VWF TIL’E’ R816W with FVIII a3sTyr1664-sTyr1680; assay type: binding; conditions: five molar excess of peptide, 298 K
Method: All NMR spectra were recorded at 298 K on Bruker Avance III 700 MHz or Bruker Avance III HD 800 MHz spectrometers equipped with cryoprobes. NMR samples consisted of 10–300 μM isotope labeled TIL’E’ in 10 mM HEPES 300 mM NaCl 5 mM CaCl2 5% D2O pH 7.3.
Two-dimensional ^15N-^1H heteronuclear single quantum correlation (HSQC) spectra ([39]) were recorded with 3-9-19 Watergate, whereas two-dimensional methyl–transverse relaxation optimized spectroscopy (TROSY) experiments were recorded using the standard heteronuclear multiple quantum coherence pulse scheme ([40]).
Arg816 is located in the VWF TIL’ β3-β4 sheet ([31]), where the largest chemical shift changes were observed (Figs. 2 and 3). […] However, the most affected residues are located far from each other on the three-dimensional structure of VWF TIL’E’.

[2] = molecular target: B-domain deleted FVIII (N8, turoctocog alfa) (UniProt P00451); experiment: ITC; MicroCal iTC200, 25 °C, 19 injections (first 0.4 uL, the rest 2 uL), 120 s between injections; who was in the syringe and the concentrations not given
FVIII [3] = experiment: ITC of VWF TIL’E’ constructs and mutants with FVIII; assay type: binding; conditions: 25°C; for N: ITC stoichiometry
Method: as §1

[4] = molecular target: T1, VWF TIL’E’ (construct 1, residues 764–865 of VWF) (UniProt P04275 764-865); experiment: NMR titration; 15N-1H HSQC of 100 uM 15N-labelled VWF TIL’E’ free and with ~500 uM (five molar excess) unlabelled FVIII a3 peptide; 298 K; 10 mM HEPES 300 mM NaCl 5 mM CaCl2 5% D2O pH 7.3; saturation not reached, upper bound of Kd from chemical shift changes; conditions: both partners purified
T1 construct: von Willebrand factor, TIL’E’ domains, residues 764-865; mature VWF starts at Ser764; enterokinase site GTDDDDK immediately before residue 764; every result printed for plain 'VWF TIL’E’' is written on this molecule; Uniformly 15N-labelled or ILV-13CH3/2H-labelled in the NMR experiments; also called wild-type VWF TIL’E’; source: thioredoxin and His6 tag cut off with enterokinase; not shown: …

[5] = ITC, three independent ITC experiments

Molecule: VWF R816W: full-length VWF R816W, severe VWD type 2N mutation
binding to FVIII in ELISA (FVIII [1]): does not bind FVIII

binding to TIL’E’ by ITC (in words) (TIL’E’): no high-affinity binding
Molecule: CC[C@H](C)[C@H](NC(=O)[C@H](CC(=O)O)NC(=O)[C@H](Cc1ccccc1)NC(=O)[C@H](CC(=O)O)NC(=O)[C@H](CCC(=O)O)NC(=O)[C@H](CCCCN)NC(=O)[C@H](CCCCN)NC(=O)[C@H](CCSC)NC(=O)[C@H](CCC(=O)O)NC(=O)[C@@H](NC(=O)[C@H](CO)NC(=O)[C@@H](NC(=O)[C@@H](NC(=O)[C@H](CC(=O)O)NC(=O)[C@H](CC(=O)O)NC(=O)[C@H](Cc1ccc(OS(=O)(=O)O)cc1)NC(=O)[C@H](CC(=O)O)NC(=O)[C@@H](NC(=O)[C@H](CCC(=O)O)NC(=O)[C@H](CCC(=O)O)NC(=O)[C@H](CCC(N)=O)NC(=O)[C@H](CC(=O)O)NC(=O)[C@H](CO)NC(=O)[C@H](CCC(N)=O)NC(=O)[C@H](CC(C)C)NC(=O)[C@@H](NC(=O)[C@@H](NC(=O)[C@H](CCCNC(=N)N)NC(=O)[C@@H](NC(=O)[C@@H](NC(=O)[C@@H](N)CCC(=O)O)[C@@H](C)CC)[C@@H](C)O)[C@@H](C)O)[C@@H](C)O)[C@@H](C)CC)[C@@H](C)O)[C@@H](C)CC)C(C)C)C(=O)N[C@@H](Cc1ccc(OS(=O)(=O)O)cc1)C(=O)N[C@@H](CC(=O)O)C(=O)N[C@@H](CCC(=O)O)C(=O)N[C@@H](CC(=O)O)C(=O)N[C@@H](CCC(=O)O)C(=O)N[C@@H](CC(N)=O)C(=O)N[C@@H](CCC(N)=O)C(=O)N[C@@H](CO)C(=O)N1CCC[C@H]1C(=O)N[C@@H](CCCNC(=N)N)C(=O)O [a3sTyr1664-sTyr1680]
effect of R816W on affinity between FVIII a3 and VWF TIL’E’ (VWF TIL’E’ R816W): decreases the affinity

Kd [2]: 0.64 µM
Molecule: VWF TIL’E’-ALA-HPC4 (construct 3, residues 764–865 with C-terminal HPC4 tag), from E. coli (from UniProt P04275 764-865) (domain or fragment)

Kd [2]: 0.75 µM
Molecule: VWF TIL’E’-ALA-HPC4 expressed in HKB11 cell line (construct 4) (domain or fragment)

Kd [2]: 0.71 µM
dH [2]: -12 kcal/mol
stoichiometry N [2]: 1
Molecule: VWF TIL’E’ (construct 1, residues 764–865 of VWF) (from UniProt P04275 764-865) (domain or fragment)

Kd [2]: 7.2 µM
dH [2]: -7.5 kcal/mol
stoichiometry N [2]: 1.29
Molecule: VWF TIL’E’ R854Q (in the construct 1 background) (from UniProt P04275 764-865) (domain or fragment)

Kd [2]: 25 µM
Molecule: VWF TIL’E’ R854K (in the construct 1 background) (from UniProt P04275 764-865) (domain or fragment)

binding to FVIII by ITC (in words) (FVIII [3]; ITC): micromolar interaction
Kd (FVIII [3]; [5]): 0.7 µM and 0.71 µM
B1: VWF TIL’E’: residues 764–865 of VWF; constructs 1 and 3 used interchangeably (protein)
chain: SLSCRPPMVKLVCPADNLRAEGLECTKTCQNYDLECMSMGCVSGCLCPPGMVRHENRCVALERCPCFHQGKEYAPGETVKIGCNTCVCQDRKWNCTDHVCDA
modifications: left off: thioredoxin, N-terminal, cleaved | His6, N-terminal, cleaved
notes: residues 764–865 of VWF; constructs 1 and 3 used interchangeably
N (FVIII [3]; three independent ITC experiments): 1.0 ± 0.3
ΔH (FVIII [3]; [5]): -12.0 ± 1.3 kcal/mol

binding to FVIII by ITC (in words) (FVIII [3]; ITC): Weak binding
increase in Kd compared to the wild-type (FVIII [3]; ITC): about an order of magnitude
Kd (FVIII [3]; ITC, one run): 7.2 ± 0.6 µM
B2: VWF R854Q TIL’E’: VWD type 2N mutation R854Q introduced into the construct 1 background (protein)
chain: B1 chain with R91Q
modifications: left off: thioredoxin, N-terminal, cleaved | His6, N-terminal, cleaved
notes: VWD type 2N mutation R854Q introduced into the construct 1 background
N (FVIII [3]; one run): 1.29 ± 0.03
ΔH (FVIII [3]; ITC, one run): -7.5 ± 0.2 kcal/mol

Kd (FVIII [3]; ITC, n not given): 25 ± 20 µM
B3: R854K: mutation R854K introduced into the construct 1 background (protein)
chain: B1 chain with R91K
modifications: left off: thioredoxin, N-terminal, cleaved | His6, N-terminal, cleaved
notes: mutation R854K introduced into the construct 1 background

binding to FVIII by ITC (in words) (FVIII [3]; ITC, listed as VWF TIL’E R816W): no binding was observed
B4: VWF R816W TIL’E’: VWD type 2N mutation R816W introduced into the construct 3 background (protein)
chain: B1 chain with R53W
modifications: left off: His6, N-terminal, cleaved | DsbC, N-terminal, cleaved | HPC4 (…: ALA linker and …), C-terminal, state not stated
notes: VWD type 2N mutation R816W introduced into the construct 3 background

Kd [4]: < 25000 µM
Molecule: EITRTTLQSDQEEID[sY]DDTISVEMKKEDFDI[sY]DEDENQSPR [FVIII a3 peptide a3_(sTyr1664-sTyr1680) (residues 1649–1689, Tyr1664 and Tyr1680 sulfated)]

B5: VWF GAMG-TIL’E’: four amino acids GAMG followed by residues 766–864 of VWF (protein)
chain: GAMGSCRPPMVKLVCPADNLRAEGLECTKTCQNYDLECMSMGCVSGCLCPPGMVRHENRCVALERCPCFHQGKEYAPGETVKIGCNTCVCQDRKWNCTDHVCD
binding to FVIII by ITC (in words) (FVIII [3]; ITC): substantially reduced binding; also recorded: the binding to FVIII had been abrogated; also recorded: unable to bind FVIII with micromolar affinity
